Assay results reported in patent US20230192899A1 (published 2023).

Experiments:
[1] = target: human CD47 on cells (human erythrocytes, MCF-7, BT-474) (human, UniProt Q08722 19-323); experiment: cell-based or functional assay
[2] = target: T1, human CD47 protein (ELISA coat) (human, UniProt Q08722 19-139); experiment: direct binding ELISA (FIG. 7C)
T1 construct: also called hCD47

[3] = target: human C-MET protein (ELISA coat) (human, UniProt P08581 25-932); experiment: direct binding ELISA (FIG. 7C)
human C-MET protein (ELISA coat), sequence (P08581 25-932 limits assumed): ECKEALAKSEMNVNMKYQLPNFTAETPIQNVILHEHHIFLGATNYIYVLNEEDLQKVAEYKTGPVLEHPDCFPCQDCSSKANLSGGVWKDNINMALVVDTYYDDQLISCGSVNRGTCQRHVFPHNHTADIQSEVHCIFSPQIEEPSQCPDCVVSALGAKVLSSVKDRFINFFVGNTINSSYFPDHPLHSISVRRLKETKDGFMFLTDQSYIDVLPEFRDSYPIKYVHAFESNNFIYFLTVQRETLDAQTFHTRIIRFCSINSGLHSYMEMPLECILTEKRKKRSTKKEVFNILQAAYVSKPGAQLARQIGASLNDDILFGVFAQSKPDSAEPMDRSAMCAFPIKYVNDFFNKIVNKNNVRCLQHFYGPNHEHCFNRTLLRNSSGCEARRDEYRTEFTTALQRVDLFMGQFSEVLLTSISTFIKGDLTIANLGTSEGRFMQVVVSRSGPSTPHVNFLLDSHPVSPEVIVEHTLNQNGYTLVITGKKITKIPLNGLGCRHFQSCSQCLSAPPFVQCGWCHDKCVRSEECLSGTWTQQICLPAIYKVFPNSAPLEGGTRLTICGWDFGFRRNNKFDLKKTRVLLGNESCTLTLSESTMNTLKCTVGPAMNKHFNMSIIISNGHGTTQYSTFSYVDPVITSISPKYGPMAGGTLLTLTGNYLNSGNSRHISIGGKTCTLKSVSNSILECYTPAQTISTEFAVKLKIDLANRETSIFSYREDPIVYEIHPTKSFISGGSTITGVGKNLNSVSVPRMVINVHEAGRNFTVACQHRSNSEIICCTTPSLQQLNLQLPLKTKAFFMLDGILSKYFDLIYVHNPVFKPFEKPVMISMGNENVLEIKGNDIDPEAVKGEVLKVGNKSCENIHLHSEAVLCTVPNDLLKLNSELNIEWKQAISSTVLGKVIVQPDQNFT

[4] = target: T2, soluble human CD47 ectodomain protein (human, UniProt Q08722 19-139); experiment: SPR (Biacore), IgG captured via anti-Fc; run at end
T2 construct: also called hCD47; huCD47

[5] = target: T2, soluble human CD47 ectodomain protein; experiment: SPR (Biacore), IgG captured via anti-Fc; run at beginning
[6] = target: T3, mouse membrane-presented CD47 on Tg32 mouse erythrocytes (mouse, UniProt Q61735 19-303); experiment: flow cytometry on Tg32 mouse erythrocytes (FIG. 21)
T3 construct: whole, on cells
T3 sequence (looked up): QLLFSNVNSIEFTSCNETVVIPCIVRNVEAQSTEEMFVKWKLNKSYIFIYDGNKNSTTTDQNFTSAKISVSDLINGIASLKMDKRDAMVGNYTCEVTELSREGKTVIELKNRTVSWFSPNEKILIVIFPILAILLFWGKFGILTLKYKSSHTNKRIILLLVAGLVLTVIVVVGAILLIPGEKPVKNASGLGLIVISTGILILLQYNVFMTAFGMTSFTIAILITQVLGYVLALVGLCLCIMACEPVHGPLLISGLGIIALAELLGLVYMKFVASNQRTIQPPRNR

B1: Fab^2 cMETCD47-L2-L2 (bispecific antibody)
heavy: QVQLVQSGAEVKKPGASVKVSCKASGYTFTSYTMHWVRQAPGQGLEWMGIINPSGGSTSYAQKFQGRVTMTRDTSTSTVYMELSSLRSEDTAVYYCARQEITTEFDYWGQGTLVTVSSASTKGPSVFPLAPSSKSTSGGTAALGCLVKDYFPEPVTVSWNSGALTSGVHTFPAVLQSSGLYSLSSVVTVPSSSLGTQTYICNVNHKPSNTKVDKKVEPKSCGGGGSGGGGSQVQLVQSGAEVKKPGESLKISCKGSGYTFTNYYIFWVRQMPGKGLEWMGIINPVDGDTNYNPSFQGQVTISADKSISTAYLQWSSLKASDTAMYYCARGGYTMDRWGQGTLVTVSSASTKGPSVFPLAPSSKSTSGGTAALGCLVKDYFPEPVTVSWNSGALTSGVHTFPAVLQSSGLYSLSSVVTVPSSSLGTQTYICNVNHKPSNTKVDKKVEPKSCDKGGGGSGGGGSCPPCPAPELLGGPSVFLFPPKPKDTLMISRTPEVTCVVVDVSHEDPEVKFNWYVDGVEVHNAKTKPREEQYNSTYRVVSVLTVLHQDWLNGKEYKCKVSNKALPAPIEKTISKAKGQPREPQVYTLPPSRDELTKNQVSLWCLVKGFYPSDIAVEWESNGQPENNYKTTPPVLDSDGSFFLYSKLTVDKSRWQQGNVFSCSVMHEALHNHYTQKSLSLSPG
light: EIVLTQSPGTLSLSPGERATLSCRASQSVSSYANSYLHWYQQKPGQAPRLLIYRGSTRESGIPDRFSGSGSGTDFTLTISRLEPEDFAVYYCQQSKSEPLTFGGGTKVEIKRTVAAPSVFIFPPSDEQLKSGTASVVCLLNNFYPREAKVQWKVDNALQSGNSQESVTEQDSKDSTYSLSSTLTLSKADYEKHKVYACEVTHQGLSSPVTKSFNRGECGGGGSGGGGSDIVMTQSPLSLPVTPGEPASISCRSSQSLLHSNGYNYLHWYLQKPGQSPQLLIYKVSNRLSGVPDRFSGSGSGTDFTLKISRVEAEDVGVYYCFQNTHTPRTFGGGTKVEIKRTVAAPSVFIFPPSDEQLKSGTASVVCLLNNFYPREAKVQWKVDNALQSGNSQESVTEQDSKDSTYSLSSTLTLSKADYEKHKVYACEVTHQGLSSPVTKSFNRGECGGGGSGGGGSCPPCPAPELLGGPSVFLFPPKPKDTLMISRTPEVTCVVVDVSHEDPEVKFNWYVDGVEVHNAKTKPREEQYNSTYRVVSVLTVLHQDWLNGKEYKCKVSNKALPAPIEKTISKAKGQPREPQVYTLPPSRDELTKNQVSLSCAVKGFYPSDIAVEWESNGQPENNYKTTPPVLDSDGSFFLVSKLTVDKSRWQQGNVFSCSVMHEALHNHYTQKSLSLSPG
fold reduction of ability to induce agglutination in comparison to A-D5 IgG1 [1]: > 241 fold

B2: Fab^2 cMETCD47-LHL-LHL (bispecific antibody)
heavy: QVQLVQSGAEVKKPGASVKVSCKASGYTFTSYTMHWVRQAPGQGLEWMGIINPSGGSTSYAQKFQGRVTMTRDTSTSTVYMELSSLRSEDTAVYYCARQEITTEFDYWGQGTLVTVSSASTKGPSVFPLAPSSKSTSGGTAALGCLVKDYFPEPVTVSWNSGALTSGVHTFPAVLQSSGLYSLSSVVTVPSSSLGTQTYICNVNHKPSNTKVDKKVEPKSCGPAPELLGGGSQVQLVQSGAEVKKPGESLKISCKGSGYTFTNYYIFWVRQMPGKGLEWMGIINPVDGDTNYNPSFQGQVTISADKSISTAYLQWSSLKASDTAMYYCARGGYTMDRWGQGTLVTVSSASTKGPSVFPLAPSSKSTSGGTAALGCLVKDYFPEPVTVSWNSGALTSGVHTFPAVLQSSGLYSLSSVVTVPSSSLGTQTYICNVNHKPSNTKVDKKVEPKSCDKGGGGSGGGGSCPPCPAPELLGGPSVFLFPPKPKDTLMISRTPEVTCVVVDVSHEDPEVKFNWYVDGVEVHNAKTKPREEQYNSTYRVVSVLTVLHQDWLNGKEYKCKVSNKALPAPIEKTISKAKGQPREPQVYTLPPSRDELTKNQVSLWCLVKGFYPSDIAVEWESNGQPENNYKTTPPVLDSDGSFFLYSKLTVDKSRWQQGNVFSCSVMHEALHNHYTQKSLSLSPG
light: EIVLTQSPGTLSLSPGERATLSCRASQSVSSYANSYLHWYQQKPGQAPRLLIYRGSTRESGIPDRFSGSGSGTDFTLTISRLEPEDFAVYYCQQSKSEPLTFGGGTKVEIKRTVAAPSVFIFPPSDEQLKSGTASVVCLLNNFYPREAKVQWKVDNALQSGNSQESVTEQDSKDSTYSLSSTLTLSKADYEKHKVYACEVTHQGLSSPVTKSFNRGECGPAPELLGGGSDIVMTQSPLSLPVTPGEPASISCRSSQSLLHSNGYNYLHWYLQKPGQSPQLLIYKVSNRLSGVPDRFSGSGSGTDFTLKISRVEAEDVGVYYCFQNTHTPRTFGGGTKVEIKRTVAAPSVFIFPPSDEQLKSGTASVVCLLNNFYPREAKVQWKVDNALQSGNSQESVTEQDSKDSTYSLSSTLTLSKADYEKHKVYACEVTHQGLSSPVTKSFNRGECGGGGSGGGGSCPPCPAPELLGGPSVFLFPPKPKDTLMISRTPEVTCVVVDVSHEDPEVKFNWYVDGVEVHNAKTKPREEQYNSTYRVVSVLTVLHQDWLNGKEYKCKVSNKALPAPIEKTISKAKGQPREPQVYTLPPSRDELTKNQVSLSCAVKGFYPSDIAVEWESNGQPENNYKTTPPVLDSDGSFFLVSKLTVDKSRWQQGNVFSCSVMHEALHNHYTQKSLSLSPG
notes: also called Met47-LHL-LHL; clone 6
fold reduction of ability to induce agglutination in comparison to A-D5 IgG1 [1]: > 241 fold | fold reduction of ability to bind CD47 in comparison to A-D5 IgG1 [2]: > 1000 fold | binding result [3]: binds

B3: A-D5 anti-CD47 IgG1 (antibody, V domains shown)
VH: QVQLVQSGAEVKKPGESLKISCKGSGYTFTNYYIFWVRQMPGKGLEWMGIINPVDGDTNYNPSFQGQVTISADKSISTAYLQWSSLKASDTAMYYCARGGYTMDRWGQGTLVTVSS
VL: DIVMTQSPLSLPVTPGEPASISCRSSQSLLHSNGYNYLHWYLQKPGQSPQLLIYKVSNRLSGVPDRFSGSGSGTDFTLKISRVEAEDVGVYYCFQNTHTPRTFGGGTKVEIK
notes: also called A-D5 IgG1; A-D5 CD47 IgG
Kd [4]: 1.32 nM | koff [4]: 0.00103 s⁻¹ | kon [4]: 775000 M⁻¹ s⁻¹ | Kd [5]: 1.29 nM | koff [5]: 0.00107 s⁻¹ | kon [5]: 833000 M⁻¹ s⁻¹

B4: Fab^2 Met47 LHL-LHL (as used in the Tg32 mouse studies) (bispecific antibody, not shown: a dimerising Fc or GST)
heavy: QVQLVQSGAEVKKPGASVKVSCKASGYTFTSYTMHWVRQAPGQGLEWMGIINPSGGSTSYAQKFQGRVTMTRDTSTSTVYMELSSLRSEDTAVYYCARQEITTEFDYWGQGTLVTVSSASTKGPSVFPLAPSSKSTSGGTAALGCLVKDYFPEPVTVSWNSGALTSGVHTFPAVLQSSGLYSLSSVVTVPSSSLGTQTYICNVNHKPSNTKVDKKVEPKSCGPAPELLGGGSQVQLVQSGAEVKKPGESLKISCKGSGYTFTNYYIFWVRQMPGKGLEWMGIINPVDGDTNYNPSFQGQVTISADKSISTAYLQWSSLKASDTAMYYCARGGYTMDRWGQGTLVTVSS
light: EIVLTQSPGTLSLSPGERATLSCRASQSVSSYANSYLHWYQQKPGQAPRLLIYRGSTRESGIPDRFSGSGSGTDFTLTISRLEPEDFAVYYCQQSKSEPLTFGGGTKVEIKRTVAAPSVFIFPPSDEQLKSGTASVVCLLNNFYPREAKVQWKVDNALQSGNSQESVTEQDSKDSTYSLSSTLTLSKADYEKHKVYACEVTHQGLSSPVTKSFNRGECGPAPELLGGGSDIVMTQSPLSLPVTPGEPASISCRSSQSLLHSNGYNYLHWYLQKPGQSPQLLIYKVSNRLSGVPDRFSGSGSGTDFTLKISRVEAEDVGVYYCFQNTHTPRTFGGGTKVEIK
binding result [6]: no binding (tested: 10 µg/ml)
